{"source": "paper PMC4963399", "binders": {"B1": {"name": "peripherin-2, N-terminally tagged with citrine, P15499 1-346 (natural protein)", "chain": "MALLKVKFDQKKRVKLAQGLWLMNWLSVLAGIVLFSLGLFLKIELRKRSEVMNNSESHFVPNSLIGVGVLSCVFNSLAGKICYDALDPAKYAKWKPWLKPYLAVCIFFNVILFLVALCCFLLRGSLESTLAYGLKNGMKYYRDTDTPGRCFMKKTIDMLQIEFKCCGNNGFRDWFEIQWISNRYLDFSSKEVKDRIKSNVDGRYLVDGVPFSCCNPSSPRPCIQYQLTNNSAHYSYDHQTEELNLWLRGCRAALLNYYSSLMNSMGVVTLLVWLFEVSITAGLRYLHTALESVSNPEDPECESEGWLLEKSVPETWKAFLESFKKLGKSNQVEAEGADAGPAPEAG"}, "B2": {"name": "peripherin-2, C-terminally tagged with citrine, P15499 1-346 (natural protein)", "chain": "B1 chain"}}, "target": "T1, rhodopsin, P15409", "T1 chain": "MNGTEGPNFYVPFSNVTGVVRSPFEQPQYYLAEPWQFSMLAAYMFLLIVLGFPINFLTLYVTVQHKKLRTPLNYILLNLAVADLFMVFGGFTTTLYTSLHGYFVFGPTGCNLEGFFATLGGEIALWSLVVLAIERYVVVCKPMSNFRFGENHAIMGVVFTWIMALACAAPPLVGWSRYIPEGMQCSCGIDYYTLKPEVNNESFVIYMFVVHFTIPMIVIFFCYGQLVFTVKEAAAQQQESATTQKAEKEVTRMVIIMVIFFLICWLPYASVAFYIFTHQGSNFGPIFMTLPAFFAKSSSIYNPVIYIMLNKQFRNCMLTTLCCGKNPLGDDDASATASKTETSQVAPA", "assay": "FRET or BRET; three cube sensitized acceptor emission FRET on single isolated rod outer segments of C57BL/6J mice co-transduced with two rAAV vectors (cerulean and citrine fusions); FRET imaging solution pH 7.4; FRET efficiency EA as mean ± SEM", "settings": "remark: other sources report otherwise", "data": [{"binder": "B1", "values": [{"measurement": "FRET efficiency EA", "value": 4.52}]}, {"binder": "B2", "values": [{"measurement": "FRET efficiency EA", "value": 2.76}]}]}
